Laboratory results: patent publication US6858707B1, “Hypersensitive response elicitor fragments which are active but do not elicit a hypersensitive response” (EDEN Bioscience Corporation, priority 1998, dated 2005)
Several values for one entry are separate records, joined by “and”; a condition that tells them apart may be missing. Equal entries are not always repeated.

Tests used:
[1] = test system: tobacco (Nicotiana tabacum v. Xanthi) leaves; test: Induction of HR in tobacco by hrpN truncated proteins; format: in vivo; conditions: for HR titer: large scale purified protein, concentration down to which HR is elicited in tobacco, — = no HR; for HR elicitation in tobacco (in words): Example 12
Description: A 1.5 ml aliquot from the 50 ml cultures grown for small scale purification of the truncated proteins was centrifuged at 14,000 rpm for four minutes and re-suspended in an equal volume of 5 mM potassium phosphate buffer, pH 6.8. The cell suspension was sonicated for ca. 30 seconds then diluted 1:2 and 1:10 with phosphate buffer. Both dilutions plus the neat cell lysate were infiltrated into the fourth to ninth leaves of 10-15 leaf tobacco plants by making a hole in single leaf panes and infiltrating the bacterial lysate into the intercellular leaf space using a syringe without a needle. The HR response was recorded 24-48 hr post infiltration. Tobacco (Nicotiana tabacum v. Xanthi) seedlings were grown in an environmental chamber at 20-25° C. with a photoperiod of 12-h light/12-h dark and ca. 40% RH. Cell lysate was used for the initial HR assays (in order to screen the truncated proteins for HR activity) as the small scale urea purification yielded very little protein which was denatured due to the purification process.
The full length positive control protein elicited HR down to only 5-7 μg/ml. […] This false HR was likely due to an affinity of the imidazole used in the purification process to bind to one or several of the background proteins, thereby not completely dialyzing out.

[2] = test system: TMV; test: Induction of systemic acquired resistance (SAR), TMV lesions on tobacco; format: in vivo, Nicotiana tabacum; conditions: tobacco sprayed with 20 μg/ml, reduction in TMV lesions vs buffer control
Description: Three tobacco (Nicotiana tabacum cv. Xanthi) plants with 8-12 leaves (ca. 75 day old plants) were used in the assay. One leaf of the tobacco plants was covered up and the rest of the leaves were sprayed with ca. 50 ml of a 20 μg/ml solution of the truncated proteins diluted with 5 mM potassium phosphate buffer. Five to seven days later two leaves (the unsprayed leaf and the sprayed leaf opposite and just above the unsprayed leaf) were inoculated with 20 μl of a 1.8 μg/ml solution of TMV along with a pinch of diatomaceous earth by rubbing the mixture along the top surface of the leaves. The TMV entered the plants through tiny lesions made by the diatomaceous earth. Ca. 3-4 days post TMV inolucation, the number of TMV lesions was counted on both leaves compared with the number of lesions on the negative control buffer treated leaves. Analyses were done to determine the efficacy of reducing the number of TWV lesions by the protein fragents compared to the buffer control. Percentage of efficacy was calculated as: Reduction in TMV lesions (% efficacy)=100×(1−mean # of lesions on treated leaves/mean # of lesions on buffer control leaves).

[3] = test system: tomato (Lycopersicon spp. cv. Marglobe); test: Induction of growth enhancement (GE/PGE), tomato seed soak; format: in vivo; conditions: for PGE ht>buffer @20 μg/ml: tomato seeds soaked overnight at 20 μg/ml; for PGE ht>buffer @20 μg/ml / PGE ht>buffer @10 μg/ml / PGE ht>buffer @ 40 μg/ml: height vs buffer control; for PGE ht>buffer @20 μg/ml / PGE ht>buffer @10 μg/ml: >10% needed to pass; for PGE ht>buffer @10 μg/ml: tomato seeds soaked overnight at 10 μg/ml
Description: Sixty tomato (Lycopersicon spp. cv. […] The next morning, the sixty seeds were sewn in three pots and 12-15 days later and again 18-20 days later the heights of the 10 tallest tomato plants per pot were measured and compared with the heights of the control plants treated only with phosphate buffer. Analyses were done on the heights to determine if there was a significant difference in the height of the plants treated with the truncated proteins compared with the buffer control, and thereby determine whether the proteins induced growth enhancement.

| Molecule | PGE ht>buffer @20 μg/ml [3] [%] | HR titer [1] [µg/mL] | PGE ht>buffer @10 μg/ml [3] [%] | HR elicitation in tobacco (in words) [1] | also measured |
| --- | --- | --- | --- | --- | --- |
| c1c[nH]cn1 [Imidazole] | – | – | – | – | false HR response ([1]; imidazole at ca. 60 mM): did elicit a false HR response |
| Fragment 20: amino acids 137-180 of SEQ ID NO: 23, smallest HR domain (STSQNDDSTSGTDSTSDSSDPMQQLLKMFSEIMQSLFGDGQDGT; listed as Erwinia amylovora) | 9 | 16 | – | – | Efficacy of TMV control ([2]; listed as 20): 64% and 58% |
| Fragment 1: full length Erwinia amylovora hypersensitive response elicitor, amino acids 1-403 of SEQ ID NO: 23, pET28(b) clone, positive control (protein, listed as Erwinia amylovora) MSLNTSGLGASTMQISIGGAGGNNGLLGTSRQNAGLGGNSALGLGGGNQNDTVNQLAGLLTGMMMMMSMMGGGGLMGGGLGGGLGNGLGGSGGLGEGLSNALNDMLGGSLNTLGSKGGNNTTSTTNSPLDQALGINSTSQNDDSTSGTDSTSDSSDPMQQLLKMFSEIMQSLFGDGQDGTQGSSSGGKQPTEGEQNAYKKGVTDALSGLMGNGLSQLLGNGGLGGGQGGNAGTGLDGSSLGGKGLQNLSGPVDYQQLGNAVGTGIGMKAGIQALNDIGTHRHSSTRSFVNKGDRAMAKEIGQFMDQYPEVFGKPQYQKGPGQEVKTDDKSWAKALSKPDDDGMTPASMEQFNKAKGMIKRPMAGDTGNGNLQARGAGGSSLGIDAMMAGDAINNMALGKLGAA | 11 | 5 to 7 | 12 | – | Efficacy of TMV control ([2]; listed as 1 (+control)): 84% and 72% |
| Fragment 6: amino acids 267-403 of SEQ ID NO: 23, C-terminal fragment (protein, listed as Erwinia amylovora) MKAGIQALNDIGTHRHSSTRSFVNKGDRAMAKEIGQFMDQYPEVFGKPQYQKGPGQEVKTDDKSWAKALSKPDDDGMTPASMEQFNKAKGMIKRPMAGDTGNGNLQARGAGGSSLGIDAMMAGDAINNMALGKLGAA | 21 | – | 21 | – | Efficacy of TMV control ([2]; listed as 6): 70% and 72%; PGE ht>buffer @ 40 μg/ml [3]: 23% @ 40 μg/ml |
| Fragment 14: amino acids 76-168 of SEQ ID NO: 23, internal fragment (protein, listed as Erwinia amylovora) MGGGLGGGLGNGLGGSGGLGEGLSNALNDMLGGSLNTLGSKGGNNTTSTTNSPLDQALGINSTSQNDDSTSGTDSTSDSSDPMQQLLKMFSEI | 20 | – | 18 | lost its HR activity | Efficacy of TMV control ([2]; listed as 14): 83% and 87% |
| Fragment 15: amino acids 105-209 of SEQ ID NO: 23, internal fragment (protein, listed as Erwinia amylovora) MLGGSLNTLGSKGGNNTTSTTNSPLDQALGINSTSQNDDSTSGTDSTSDSSDPMQQLLKMFSEIMQSLFGDGQDGTQGSSSGGKQPTEGEQNAYKKGVTDALSGL | 19 | 5 to 10 | 14 | – | Efficacy of TMV control ([2]; listed as 15): 57% and 67% |
| Fragment 7: amino acids 343-403 of SEQ ID NO: 23, smallest C-terminal protein (protein, listed as Erwinia amylovora) MTPASMEQFNKAKGMIKRPMAGDTGNGNLQARGAGGSSLGIDAMMAGDAINNMALGKLGAA | 7 | – | 7 | – | – |
| Fragment 9: amino acids 1-104 of SEQ ID NO: 23, N-terminal fragment (protein, listed as Erwinia amylovora) MSLNTSGLGASTMQISIGGAGGNNGLLGTSRQNAGLGGNSALGLGGGNQNDTVNQLAGLLTGMMMMMSMMGGGGLMGGGLGGGLGNGLGGSGGLGEGLSNALND | 8 | 3 | 4 | – | Efficacy of TMV control [2]: 82% |
| Fragment 5: amino acids 210-403 of SEQ ID NO: 23, C-terminal fragment (protein, listed as Erwinia amylovora) MGNGLSQLLGNGGLGGGQGGNAGTGLDGSSLGGKGLQNLSGPVDYQQLGNAVGTGIGMKAGIQALNDIGTHRHSSTRSFVNKGDRAMAKEIGQFMDQYPEVFGKPQYQKGPGQEVKTDDKSWAKALSKPDDDGMTPASMEQFNKAKGMIKRPMAGDTGNGNLQARGAGGSSLGIDAMMAGDAINNMALGKLGAA | 14 | – | 13 | did not elicit HR at a detectable level | Efficacy of TMV control ([2]; listed as 5): 77% and 78%; PGE ht>buffer @ 40 μg/ml [3]: 16% @ 40 μg/ml |
| Fragment 13: amino acids 76-209 of SEQ ID NO: 23, internal fragment (protein, listed as Erwinia amylovora) MGGGLGGGLGNGLGGSGGLGEGLSNALNDMLGGSLNTLGSKGGNNTTSTTNSPLDQALGINSTSQNDDSTSGTDSTSDSSDPMQQLLKMFSEIMQSLFGDGQDGTQGSSSGGKQPTEGEQNAYKKGVTDALSGL | 4 | 5 | 7 | – | Efficacy of TMV control ([2]; listed as 13): 44% and 84%; PGE ht>buffer @ μg/ml ([3]; concentration figure missing in the cell): 18% @ μg/ml; enhanced growth at 60 μg/ml ([3]; tomato, 60 μg/ml): 18% |
| Fragment 10: amino acids 1-168 of SEQ ID NO: 23, N-terminal fragment (protein, listed as Erwinia amylovora) MSLNTSGLGASTMQISIGGAGGNNGLLGTSRQNAGLGGNSALGLGGGNQNDTVNQLAGLLTGMMMMMSMMGGGGLMGGGLGGGLGNGLGGSGGLGEGLSNALNDMLGGSLNTLGSKGGNNTTSTTNSPLDQALGINSTSQNDDSTSGTDSTSDSSDPMQQLLKMFSEI | 5 | 1 | 13 | – | Efficacy of TMV control [2]: 69% |
| Fragment 17: amino acids 105-168 of SEQ ID NO: 23, internal fragment (protein, listed as Erwinia amylovora) MLGGSLNTLGSKGGNNTTSTTNSPLDQALGINSTSQNDDSTSGTDSTSDSSDPMQQLLKMFSEI | 16 | – | 19 | lost its HR activity | Efficacy of TMV control [2]: 89% |
| Fragment 4: amino acids 169-403 of SEQ ID NO: 23, C-terminal fragment (protein, listed as Erwinia amylovora) MQSLFGDGQDGTQGSSSGGKQPTEGEQNAYKKGVTDALSGLMGNGLSQLLGNGGLGGGQGGNAGTGLDGSSLGGKGLQNLSGPVDYQQLGNAVGTGIGMKAGIQALNDIGTHRHSSTRSFVNKGDRAMAKEIGQFMDQYPEVFGKPQYQKGPGQEVKTDDKSWAKALSKPDDDGMTPASMEQFNKAKGMIKRPMAGDTGNGNLQARGAGGSSLGIDAMMAGDAINNMALGKLGAA | 12 | – | 9 | did not elicit HR | Efficacy of TMV control ([2]; listed as 4): 64% and 79% |
